In patent US20170253633A1:

Molecular target: HLA-A*02:01 (human)
Assay: UV-ligand exchange + anti-b2m ELISA; ++++ = peptide exchange yield >75%

KLLETKWTL (modifications not checked) […]
peptide exchange yield: > 75%
